Source: paper PMC11377297, “Mechanical disengagement of the cohesin ring” (Nature Structural & Molecular Biology, 2023)

Target: T1, Smc1^Psm1-SNAP subunit of the fission yeast cohesin tetramer (head-tagged variant, TMR-labelled) (fission yeast, UniProt O94383 1-1228, TMR fluorophore on the SNAP-tag)
T1 construct: Psm1 (Smc1), fission yeast cohesin subunit; source: recombinant, purified as part of the cohesin tetramer; not shown: SNAP-tag, C-terminal, kept
T1 sequence (looked up): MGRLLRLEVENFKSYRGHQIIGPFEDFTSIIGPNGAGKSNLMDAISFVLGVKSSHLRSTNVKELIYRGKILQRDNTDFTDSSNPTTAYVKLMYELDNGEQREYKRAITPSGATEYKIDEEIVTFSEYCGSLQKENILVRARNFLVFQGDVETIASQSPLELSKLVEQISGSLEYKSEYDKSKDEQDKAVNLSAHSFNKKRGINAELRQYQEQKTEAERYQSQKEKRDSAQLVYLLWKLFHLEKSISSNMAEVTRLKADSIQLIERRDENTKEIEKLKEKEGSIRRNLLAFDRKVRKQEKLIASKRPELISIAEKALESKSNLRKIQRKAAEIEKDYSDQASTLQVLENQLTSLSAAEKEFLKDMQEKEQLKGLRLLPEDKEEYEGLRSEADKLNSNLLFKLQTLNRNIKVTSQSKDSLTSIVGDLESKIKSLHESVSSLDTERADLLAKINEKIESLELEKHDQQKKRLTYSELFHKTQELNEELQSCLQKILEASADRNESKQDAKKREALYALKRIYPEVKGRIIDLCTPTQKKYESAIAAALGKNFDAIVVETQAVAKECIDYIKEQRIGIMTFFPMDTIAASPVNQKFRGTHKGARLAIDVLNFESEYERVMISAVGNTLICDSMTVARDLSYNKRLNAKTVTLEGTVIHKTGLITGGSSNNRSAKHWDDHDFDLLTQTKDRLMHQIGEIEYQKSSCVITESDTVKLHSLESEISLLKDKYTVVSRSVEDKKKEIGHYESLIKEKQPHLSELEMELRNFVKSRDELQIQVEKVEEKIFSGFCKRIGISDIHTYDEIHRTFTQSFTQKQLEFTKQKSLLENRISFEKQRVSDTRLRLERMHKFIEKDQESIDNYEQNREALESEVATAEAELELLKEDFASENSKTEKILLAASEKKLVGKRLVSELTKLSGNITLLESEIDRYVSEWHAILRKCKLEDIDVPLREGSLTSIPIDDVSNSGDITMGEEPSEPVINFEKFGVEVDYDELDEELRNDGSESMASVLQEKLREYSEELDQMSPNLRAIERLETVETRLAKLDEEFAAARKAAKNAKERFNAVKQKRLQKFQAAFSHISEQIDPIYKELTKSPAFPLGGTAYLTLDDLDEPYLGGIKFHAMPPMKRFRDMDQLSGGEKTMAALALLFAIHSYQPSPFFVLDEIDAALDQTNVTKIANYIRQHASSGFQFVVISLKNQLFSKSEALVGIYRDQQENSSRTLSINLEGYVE
Experiment: co-purification of the recombinant complex (SDS-PAGE, Coomassie); purified cohesin complex resolved by SDS-PAGE; purification methods in the Supplementary Information

B1: Smc3^Psm3-CLIP-biotin subunit of the fission yeast cohesin tetramer (head-tagged variant) (natural protein, UniProt O42649 1-1194, looked up)
chain: MYITKIVIQGFKSYKDYTVIEPLSPHHNVIVGRNGSGKSNFFAAIRFVLSDAYTHLSREERQALLHEGPGATVMSAYVEVTFANADNRFPTGKSEVVLRRTIGLKKDEYSLDKKTVSKTEVINLLESAGFSRSNPYYIVPQGRVTSLTNAKDSERLELLKEVAGTQIYENRRAESNKIMDETIQKSEKIDELLQYIEERLRELEEEKNDLAVYHKKDNERRCLEYAIYSREHDEINSVLDALEQDRIAALERNDDDSGAFIQREERIERIKAEITELNHSLELLRVEKQQNDEDYTNIMKSKVALELQSSQLSRQIEFSKKDESSKLNILSELESKISEKENELSEILPKYNAIVSEADDLNKRIMLLKNQKQSLLDKQSRTSQFTTKKERDEWIRNQLLQINRNINSTKENSDYLKTEYDEMENELKAKLSRKKEIEISLESQGDRMSQLLANITSINERKENLTDKRKSLWREEAKLKSSIENVKDDLSRSEKALGTTMDRNTSNGIRAVKDIAERLKLEGYYGPLCELFKVDNRFKVAVEATAGNSLFHIVVDNDETATQILDVIYKENAGRVTFMPLNKLRPKAVTYPDASDALPLIQYLEFDPKFDAAIKQVFSKTIVCPSIETASQYARSHQLNGITLSGDRSDKKGALTAGYRDYRNSRLDAIKNVKTYQIKFSDLQESLEKCRSEIESFDQKITACLDDLQKAQLSLKQFERDHIPLKDELVTITGETTDLQESMHHKSRMLELVVLELHTLEQQANDLKSELSSEMDELDPKDVEALKSLSGQIENLSHEFDAIIKERAHIEARKTALEYELNTNLYLRRNPLKAEIGSDNRIDESELNSVKRSLLKYENKLQIIKSSSSGLEEQMQRINSEISDKRNELESLEELQHEVATRIEQDAKINERNAAKRSLLLARKKECNEKIKSLGVLPEEAFIKYVSTSSNAIVKKLHKINEALKDYGSVNKKAYEQFNNFTKQRDSLLARREELRRSQESISELTTVLDQRKDEAIERTFKQVAKSFSEIFVKLVPAGRGELVMNRRSELSQSIEQDISMDIDTPSQKSSIDNYTGISIRVSFNSKDDEQLNINQLSGGQKSLCALTLIFAIQRCDPAPFNILDECDANLDAQYRSAIAAMVKEMSKTSQFICTTFRPEMVKVADNFYGVMFNHKVSTVESISKEEAMAFVEG
modifications: biotin on the CLIP-tag
notes: Psm3 (Smc3), fission yeast cohesin subunit; source: recombinant, purified as part of the cohesin tetramer; not shown: CLIP-tag, C-terminal, kept
B1: binds.
